In test [1] the target is T1, monkey CD40 extracellular domain expressed with a C-terminal myc-myc-hexahistidine tag (monkey).
T1 construct: also called mfCD40-MMH; REGN3097
T1 chain: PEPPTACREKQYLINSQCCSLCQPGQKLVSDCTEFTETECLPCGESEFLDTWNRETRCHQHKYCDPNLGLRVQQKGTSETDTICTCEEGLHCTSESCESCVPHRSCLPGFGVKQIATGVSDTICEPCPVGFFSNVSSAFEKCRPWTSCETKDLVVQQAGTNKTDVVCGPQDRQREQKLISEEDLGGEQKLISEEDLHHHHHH
Briefly: SPR 25C, captured mAb. The method, then:
(§1) The equilibrium dissociation constants (KD) for anti-CD40 bivalent and bispecific monoclonal antibodies (mAbs) were determined using a real-time surface plasmon resonance (SPR)-based Biacore 4000 biosensor. All binding studies were performed in 10 mM HEPES, 150 mM NaCl, 3 mM EDTA, and 0.05% v/v surfactant Tween-20, pH 7.4 (HBS-ET) running buffer at 25° C. and 37° C. The Biacore CM5 sensor surface was first derivatized by amine coupling with a monoclonal mouse anti-human Fc antibody (REGN2567) to capture anti-CD40 bivalent parental and anti-CD40×CD40 bispecific antibodies. Different concentrations of CD40 reagents, human CD40 extracellular domain expressed with a C-terminal myc-myc-hexahistidine tag (“hCD40-MMH”; REGN3094; SEQ ID NO: 53), monkey CD40 extracellular domain expressed with a C-terminal myc-myc-hexahistidine tag (“mfCD40-MMH”; REGN3097; SEQ ID NO: 54), and mouse CD40 extracellular domain expressed with a C-terminal myc-myc-hexahistidine tag (“mCD40-MMH”; REGN3098; SEQ ID NO: 55), at concentrations ranging from 3.7 nM to 100 nM or 3.3 nM to 90 nM in a series of 3-fold dilutions prepared in HBS-ET running buffer were injected at a flow rate of […] for 4 minutes or […] for 5 minutes. The dissociation of different CD40 reagents bound to anti-CD40 bivalent parental and anti-CD40×CD40 bispecific antibodies was monitored for 10 minutes in HBS-ET running buffer. At the end of each cycle, the anti-CD40 bivalent parental and anti-CD40×CD40 bispecific antibodies capture surface was regenerated using a 12 sec injection of 20 mM H₃PO₄.
(§2) The association rate (ka) and dissociation rate (kd) were determined by fitting the real-time binding sensorgrams to a 1:1 binding model with mass transport limitation using Scrubber 2.0c curve-fitting software. Binding dissociation equilibrium constant (KD) and dissociative half-life (t½) were calculated from the kinetic rates as: KD (M)=kd/kₐ, and t_{1/2} (min)=[ln(2)/(60*kd)].

In test [2] the target is T2, mouse CD40 extracellular domain expressed with a C-terminal myc-myc-hexahistidine tag (mouse).
T2 construct: also called mCD40-MMH; REGN3098
T2 chain: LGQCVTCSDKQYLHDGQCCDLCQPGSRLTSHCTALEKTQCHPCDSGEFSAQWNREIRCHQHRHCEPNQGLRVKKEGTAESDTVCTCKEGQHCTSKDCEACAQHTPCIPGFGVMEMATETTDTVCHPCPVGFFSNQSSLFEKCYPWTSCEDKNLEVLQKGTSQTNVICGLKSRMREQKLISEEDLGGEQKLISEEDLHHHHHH
Description: SPR 25C, captured mAb. The method, then:
as §1, §2

Test [3] deals with T3, human CD40 extracellular domain expressed with a C-terminal myc-myc-hexahistidine tag (human).
T3 construct: also called hCD40-MMH; hCD40-mmH
Description: SPR 25C, captured mAb. The procedure: as §1, §2

Test [4] deals with T2, mouse CD40 extracellular domain …. Briefly: SPR 37C, captured mAb. The procedure: as §1, §2
The target of test [5] is T3, human CD40 extracellular domain …. Description: SPR 37C, captured mAb. The procedure: as §1, §2
The target in test [6] is T4, human CD40 expressed on cells (human, UniProt P25942 21-277). Description: cell-based or functional assay.
Test [7] addresses T4, human CD40 expressed on cells. Description: cell-based or functional assay. The source holds these as a separate data set.
The target is the same in test [8]. Description: cell-based or functional assay. This is another data set of the same source.
The target in test [9] is T3, human CD40 extracellular domain …. Briefly: ELISA, blocks 40 nM hCD40-mmH binding to coated 9His-hCD40L. Put shortly:
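Antibodies (977 pM to 1 μM) were pre-mixed 1 h with 40 nM hCD40-mmH in PBS+0.5% BSA, then added for 1 h at room temperature to plates coated with 9His-hCD40L (5 μg/mL). Bound hCD40-mmH detected with HRP anti-c-Myc and TMB, OD450. Data fitted by four-parameter logistic; percent blocking calculated at highest concentration.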

Test [10] addresses T4, human CD40 expressed on cells. Briefly: cell-based or functional assay. This is another data set of the same source.
The target is the same in test [11]. Description: cell-based or functional assay. This is another data set of the same source.
The target is the same in test [12]. Briefly: cell-based or functional assay. This is another data set of the same source.
Test [13] shares this target. Description: cell-based or functional assay. This is another data set of the same source.
Test [14] has the same target. Description: cell-based or functional assay. The source holds these as a separate data set.
Test [15] shares this target. Briefly: cell-based or functional assay. This is another data set of the same source.
For test [16], the target named is T3, human CD40 extracellular domain …. Briefly: BLI Octet, hCD40-MMH captured on anti-Penta-His tips. The procedure: Binding competition between different anti-CD40 monoclonal antibodies (mAbs) was determined using a real time, label-free bio-layer interferometry (BLI) assay on the Octet HTX biosensor platform (Pall ForteBio Corp.). In addition to parental antibodies 21519P2, 21520P2, and 30027P2, a comparator anti-CD40 antibody (REGN11209) was also tested; this comparator has the heavy chain and light chain sequences of iscalimab (see, U.S. Pat. No. 8,828,396). The entire experiment was performed at 25° C. in 10 mM HEPES buffer containing 150 mM NaCl, 3 mM EDTA, 1 mg/mL BSA, 0.02% NaN₃, and 0.05% v/v Surfactant Tween-20 at pH 7.4 (HBS-EP) with the plate shaking at a speed of 1000 rpm.
To assess the ability of one antibody to compete with another antibody for binding to CD40, around 0.47 nm-0.54 nm of recombinant human CD40 extracellular domain expressed with a C-terminal myc-myc-hexahistidine (hCD40-MMH; SEQ ID NO: 53) was first captured onto anti-Penta-His antibody coated Octet biosensor tips (Fortebio Inc, #18-5122) by submerging the biosensor tips in wells containing 10 μg/mL solution of the hCD40-MMH for 90 seconds. […] The real-time binding response was monitored and the binding response at the end of every step was recorded. […]
Target sequence in this assay (chain, as listed by the source limits assumed): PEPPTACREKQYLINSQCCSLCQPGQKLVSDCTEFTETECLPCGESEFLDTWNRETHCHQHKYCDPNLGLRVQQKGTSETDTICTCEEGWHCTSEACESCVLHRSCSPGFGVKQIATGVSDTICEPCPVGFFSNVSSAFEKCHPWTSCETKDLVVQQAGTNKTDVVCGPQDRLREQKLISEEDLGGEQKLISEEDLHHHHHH
Background: Biolayer interferometry detects binding as a change in optical thickness at a sensor tip.

T4 sequence (P25942 21-277): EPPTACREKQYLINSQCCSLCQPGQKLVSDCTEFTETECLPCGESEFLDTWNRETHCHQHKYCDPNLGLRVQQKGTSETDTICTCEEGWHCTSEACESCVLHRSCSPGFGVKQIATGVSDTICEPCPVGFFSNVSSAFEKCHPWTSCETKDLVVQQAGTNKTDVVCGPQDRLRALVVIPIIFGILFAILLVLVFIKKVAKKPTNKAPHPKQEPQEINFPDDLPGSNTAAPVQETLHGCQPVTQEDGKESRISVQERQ

B1: 21519P2 (antibody, human IgG4 S228P, kappa, V domains shown)
VH: QLQLQESGPGLVRPSETLSLTCSVSGASMNTNNYYWGWIRQPPGKGLEWIGSGYYNGNTYYNPSLKSRVTISVDTSKNQFSLKLNSVTAADTAVYYCARQTPPRIIGSPNIWGQGTMVTVSS
VL: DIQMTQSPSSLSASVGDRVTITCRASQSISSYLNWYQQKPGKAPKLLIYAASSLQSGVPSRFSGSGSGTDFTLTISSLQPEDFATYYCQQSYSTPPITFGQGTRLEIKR
notes: Parental bivalent anti-CD40 mAb; also called H4sH21519P2
Turning to B1, the “100 nM Ag Bound (RU)” value in test [1] is 10.3 RU. The “100 nM Ag Bound (RU)” value in test [2] was found to be 0.4 RU. Also, in [3], the “100 nM Ag Bound (RU)” value was found to be 99 RU. For the same molecule, the “100 nM Ag Bound (RU)” value in test [4] worked out at 1.6 RU. In addition, in test [5], the “100 nM Ag Bound (RU)” value is 105 RU. In addition, in test [6], the “IC50, NFkB-luc Ramos, 500 pM hCD40L” value was 3.09e-11 M; the “Max % activation, NFkB-luc Ramos, no ligand” value worked out at 13%; the “Max % inhibition, NFkB-luc Ramos, 500 pM hCD40L” value was 88%. In test [7], the “IC50, NFkB-luc Raji, 900 pM hCD40L” value turned out to be 6.05e-11 M; the “Max % activation, NFkB-luc Raji, no ligand” value is 15%; the “Max % inhibition, NFkB-luc Raji, 900 pM hCD40L” value turned out to be 92%. In test [8], the “IC50, NFkB-luc THP-1, 10 nM hCD40L” value was determined as 0.276 nM; the “Max % activation, NFkB-luc THP-1, no ligand” value amounted to 5%; the “Max % inhibition, NFkB-luc THP-1, 10 nM hCD40L” value turned out to be 99%. The “% Blocking at highest mAb concentration” value in test [9] was determined as 94%.

B2: REGN11209 (comparator anti-CD40 antibody with the heavy chain and light chain sequences of iscalimab) (antibody, human IgG1, kappa, N297A, V domains shown)
VH: QVQLVESGGGVVQPGRSLRLSCAASGFTFSSYGMHWVRQAPGKGLEWVAVISYEESNRYHADSVKGRFTISRDNSKITLYLQMNSLRTEDTAVYYCARDGGIAAPGPDYWGQGTLVTVSS
VL: DIVMTQSPLSLTVTPGEPASISCRSSQSLLYSNGYNYLDWYLQKPGQSPQVLISLGSNRASGVPDRFSGSGSGTDFTLKISRVEAEDVGVYYCMQARQTPFTFGPGTKVDIRR
notes: also called COMP11209; CFZ533
With B2, in [10], the “% max blockade relative to no mAb, IL-6, B cells, donor 1” value is 84.2%; the “% max blockade relative to no mAb, IL-6, B cells, donor 2” value amounted to 91.3%; the “% max blockade relative to no mAb, IL-6, B cells, donor 3” value was found to be 91.3%. For the same molecule, in test [11], the “% max blockade relative to no mAb, IL-10, B cells, donor 1” value was determined as 84.1%; the “% max blockade relative to no mAb, IL-10, B cells, donor 2” value was found to be 91.7%; the “% max blockade relative to no mAb, IL-10, B cells, donor 3” value was 91.4%. In test [12], the “% max blockade relative to no mAb, TNFa, B cells, donor 1” value was 53.9%; the “% max blockade relative to no mAb, TNFa, B cells, donor 2” value is 71.4%; the “% max blockade relative to no mAb, TNFa, B cells, donor 3” value stood at 73.9%. Further, in test [13], the “% max blockade relative to no mAb, IL-6, assay #2, donor 1” value was found to be 88.6% and the “% max blockade relative to no mAb, IL-6, assay #2, donor 2” value came to 88.3%. Also, in [14], the “% max blockade relative to no mAb, IL-10, assay #2, donor 1” value came out at 88.1% and the “% max blockade relative to no mAb, IL-10, assay #2, donor 2” value stood at 90.5%. In [15], the “% max blockade relative to no mAb, TNFa, assay #2, donor 1” value was determined as 62% and the “% max blockade relative to no mAb, TNFa, assay #2, donor 2” value was determined as 50.6%. Further, the binding result in test [16] was “binds”.

Values taken from US20250276092A1 (Regeneron, published 2025).
